Data published in publication PMC9206684.

B1: GST-tagged IGF2BP2, Q9Y6M1 1-599 (natural protein)
chain: MMNKLYIGNLSPAVTADDLRQLFGDRKLPLAGQVLLKSGYAFVDYPDQNWAIRAIETLSGKVELHGKIMEVDYSVSKKLRSRKIQIRNIPPHLQWEVLDGLLAQYGTVENVEQVNTDTETAVVNVTYATREEAKIAMEKLSGHQFENYSFKISYIPDEEVSSPSPPQRAQRGDHSSREQGHAPGGTSQARQIDFPLRILVPTQFVGAIIGKEGLTIKNITKQTQSRVDIHRKENSGAAEKPVTIHATPEGTSEACRMILEIMQKEADETKLAEEIPLKILAHNGLVGRLIGKEGRNLKKIEHETGTKITISSLQDLSIYNPERTITVKGTVEACASAEIEIMKKLREAFENDMLAVNQQANLIPGLNLSALGIFSTGLSVLSPPAGPRGAPPAAPYHPFTTHSGYFSSLYPHHQFGPFPHHHSYPEQEIVNLFIPTQAVGAIIGKKGAHIKQLARFAGASIKIAPAEGPDVSERMVIITGPPEAQFKAQGRIFGKLKEENFFNPKEEVKLEAHIRVPSSTAGRVIGKGGKTVNELQNLTSAEVIVPRDQTPDENEEVIVRIIGHFFASQTAQRKIREIVQQVKQQEQKYPQGVASQRSK
B2: insulin-like growth factor 2 mRNA-binding protein 2 (IGF2BP2), endogenous, Q9Y6M1 1-599 (natural protein)
chain: B1 chain

Assays:
[1] = biological target: GST-tagged IGF2BP2 (human), Q9Y6M1; assay: cross-linking; cell suspension with 1.25 mM DSS, 30 min, 37 °C; nondenaturing lysis and PAGE, Western blot; monomer 65 kDa, homodimer 130 kDa; HEK293T (GST-IGF2BP2) and OVCAR3/CAOV3 (endogenous, with Ct-OATP1B3 or IGF2BP2 knockdown or overexpression); details: remark: other sources report otherwise
[2] = biological target: insulin-like growth factor 2 mRNA-binding protein 2 (IGF2BP2), endogenous (human (endogenous in CAOV3 and OVCAR3)), Q9Y6M1; assay: as above; details: remark: other sources report otherwise

stoichiometry N [1]	stoichiometry N [2]	Binder
2	–	B1
–	2	B2
